Laboratory results from patent publication US20250188457A1, “COMPOSITIONS AND METHODS FOR THE TREATMENT OF GLIOBLASTOMA BY INHIBITION OF THE TFPI2-CD51-STAT6 SIGNALING AXIS” (Northwestern University, priority 2023, published 2025).

Columns and labels:
[1] = tested on: GSC23 and GSC262 cells; assay: Tumorsphere formation assay (GSC self-renewal); format: cell-based, human; details: GSC262 and GSC23; indicated concentrations
Method: The tumorsphere formation assay was performed (Ref. 79; incorporated by reference in its entirety). GSCs were treated with different concentrations of recombinant TFPI2 protein for 24 hrs with or without inhibition of JNK or STAT3, or modified with TFPI21 KO, knockdown or overexpression. After treatment or genetic modifications, cells were centrifuged at 1500 rpm for 5 min and resuspended in the plain cell culture media without additional supplements. Cells were then seeded into a 96-wells plate at 100 cells/well. The number of tumorspheres in each well was imaged and quantified after 10 days.

[2] = tested on: GSC262, GSC23 and GSC20 cells; assay: Immunoblot for CD133 and SOX2 in GSCs; format: cell-based, human; details: TFPI2 recombinant protein at indicated concentrations for 24 hrs
Method: The protein expression in cells was determined by western blotting analysis (Ref. 61; incorporated by reference in its entirety). Cells were homogenized in RIPA lysis buffer containing phosphatase/protease cocktail inhibitors (Cell Signaling Technology, #5870). The protein concentration was determined by BCA Protein Assay Kit (Thermo Fisher Scientific, #P123225). Protein solution was mixed with the Leammli sample buffer and heated at 95° C. before loading to SurePAGE gels (GenScript, #M00653). The gels were run at a constant voltage of 80 V and then transferred to 0.2 μm nitrocellulose membrane (Bio-Rad, #1620112) using the Trans-Blot Turbo system (Bio-Rad) with a preprogrammed standard protocol for 30 min. Nitrocellulose membrane was incubated with 5% dry milk to block any unspecific staining. […]

[3] = tested on: CD51; assay: Co-immunoprecipitation of TFPI2 and CD51 in microglia; format: binding, human and mouse; details: SIM-A9 and HMC3 microglia treated with 20 ng/ml TFPI2 recombinant protein for 1 hr; anti-CD51 or anti-TFPI2 antibody
Method: Co-IP was performed using Invitrogen™ Dynabeads™ Protein G Immunoprecipitation Kit (Thermo Fisher Scientific, #10007D). Briefly, human or mouse microglia were treated with 20 ng/ml TFPI2 recombinant protein for 1 hr. RIPA lysis buffer was then used to extract protein after washing with PBS. Magnetic beads (1.5 mg) were separated from the solution using a magnetic stand. […] TFPI2 antibody (Abcam, #ab186747), CD51 antibody (Cell Signaling Technology, #4711S), or rabbit IgG (isotype control, Cell Signaling Technology, #2729) was prepared in […] of antibody binding and washing Buffer. Antibody or IgG was incubated with magnetic beads for 10 min at room temperature with rotation. After removing the supernatant, antibody/IgG-conjugated magnetic beads were incubated with cell lysis buffer for 2 hrs at room temperature with rotation to immunoprecipitate TFPI2- or CD51-interacting antigens. The magnetic bead-antibody-antigen complex was washed three times using […] washing buffer and then eluted with the elution buffer. The complex was loaded into 4-12% SurePAGE gels to evaluate target protein expression after Co-IP.

B1: TFPI2 recombinant protein (tissue factor pathway inhibitor 2; BioVision, #7481-10) (ligand, UniProt P48307 23-235, looked up)
chain: DAAQEPTGNNAEICLLPLDYGPCRALLLRYYYDRYTQSCRQFLYGGCEGNANNFYTWEACDDACWRIEKVPKVCRLQVSVDDQCEGSTEKYFFNLSSMTCEKFFSGGCHRNRIENRFPDEATCMGFCAPKKIPSFCYSPKDEGLCSANVTRYYFNPRYRTCDAFTYTGCGGNDNNFVSREDCKRACAKALKKKKKMPKLRFASRIRKIRKKQF
notes: Bought recombinant protein added to microglia at 20 ng/ml; also called recombinant TFPI2; secreted TFPI2
- GSC self-renewal (tumorspheres) upon TFPI2 recombinant protein [1]: Enhanced
- expression of stemness-associated factors CD133 and SOX2 [2]: increased
- interaction between CD51 and TFPI2 [3]: confirmed
